Changes are numbered by the printed parent chain.
B1: 64UV63 phage (scFv)
scFv: ELTLTQSPAFMSATPGDKVNISCKGSQDIDDNMNWYQQKPGEAIIFIIQEATTLVPGIPPRFSGSGYGTDFTLTINNIESEDAAYYFCLQHDNFPPYTFGQGTKLEIKGGSSRSSSSGGGGSGGGGQVQLQESGGGLVQPGGSLRLSCAASGFTFSSYEMNWVRQAPGKGLEWVSYISSSGSTIYYADSVKGRFTISRDNAKNSLYLQMNSLRAEDTAVYYCARDLGGFDPWGQGTLVTASS
notes: also called 64UV63 scFv
B2: hC5a-35 phage (scFv)
scFv: DIQMTQSPSSLSASVGDRVTITCQASQDISNYLNWYQQKPGKAPKLLIYDASNLETGVPSRFSGSGSGTDFTFTIRSLQPEDIATYYCQQYDNLPPWTFGQGTKVEIKGGSSRSSSSGGGGSGGGGEVQLVESGGGLVEPGRSLRLSCTASGYTFGDYAMSWFRQAPGKDLEWVGFIRSKAYGGTTEYAASVKGRFTISRDDSKSIAYLQMNSLKTEDTAVYYCTRAGNDDQYFDYWGQGTQVTVSS
notes: also called hC5a-35scfv; hC5a-35 scfv

Legend:
[1] = biological target: T1, IL1β WT with 6xHis tag (human, UniProt P01584 117-269); assay: monoclonal phage panning on coated antigen; ratio of output CFU with and without UV crosslinking
T1 construct: Expressed in E. coli from pET28a with a C-terminal 6xHis tag; about 19 kDa on SDS-PAGE; also called WT IL1β; wild-type IL1β
Source text: Colony Forming Unit (CFU) was counted, and finally the positive clones(hits) were picked.
After elution, the output CFUs of UV and non-UV-treated groups were counted and compared.

[2] = biological target: IL1β 64pBpa mutant (human) (UniProt P01584); assay: monoclonal phage panning on coated antigen, UV 365 nm, competitive/low-pH washes, trypsin release, colony count
[3] = biological target: IL1β 64pBpa mutant (human) (UniProt P01584); assay: monoclonal phage panning on coated antigen; ratio of output CFU with and without UV crosslinking
[4] = biological target: IL1β 64pBpa mutant (human) (UniProt P01584); assay: monoclonal phage panning on coated antigen, no UV, competitive/low-pH washes, trypsin release, colony count
[5] = biological target: T2, hC5a with 6xHis tag (human, UniProt P01031 678-751); assay: monoclonal phage panning on coated antigen; ratio of output CFU with and without UV crosslinking
T2 construct: also called WT hC5a; WT-hC5a
T2 sequence: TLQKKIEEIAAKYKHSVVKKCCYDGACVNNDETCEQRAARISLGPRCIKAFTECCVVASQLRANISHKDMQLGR

[6] = biological target: T3, Val18pBpa mutant of hC5a (human, UniProt P01031 678-751, not fully specified; p-benzoyl-L-phenylalanine (pBpa) at 18); assay: as above
T3 construct: X stands for pBpa
T3 chain: T2 sequence with V18X

Binder | UV-treated output CFU/Non-UV-treated output CFU [1] [ratio] | UV-treated output CFU [2] [CFU] | UV-treated output CFU/Non-UV-treated output CFU [3] | Non-UV-treated output CFU [4] [CFU] | UV-treated output CFU/Non-UV-treated output CFU [5] [ratio] | UV-treated output CFU/Non-UV-treated output CFU [6] [ratio]
B1 | 1.1 | 140 | 6.4 | 22 |  | 
B2 |  |  |  |  | 1.1 | 3.3

From patent US20230095979A1 (NANTONG YICHEN BIOPHARMA, published 2023)
